From patent publication US20260266848A1, “COMPOSITIONS AND METHODS FOR DIAGNOSING AND TREATING DYSTONIA” (Duke University, priority 2023, published 2026)

Legend:
[1] = test system: WT MEF EVs; test: Quantitative LC-MS/MS proteomics of EVs from ISRIB-treated WT MEF cultures; type: cell-based, mouse; design: key to ISRIB and DYT Parallel Direction / ISRIB and DYT Parallel Direction, Ctdsp1 / ISRIB and DYT Parallel Direction, Pcdh19 / ISRIB and DYT Parallel Direction, Tspan7 / ISRIB and DYT Parallel Direction, Myo1e / ISRIB and DYT Parallel Direction, Plpp3 / ISRIB and DYT Parallel Direction, Sh3bp4 / ISRIB and DYT Parallel Direction, Dnajc7 / ISRIB and DYT Parallel Direction, Drg1 / ISRIB and DYT Parallel Direction, Maea: YES = protein abundance effect similar to DYT/WT; conditions: EV protein abundance; for WT + ISRIB/WT Cohen's d: ISRIB-treated WT vs WT; for ISRIB and DYT Parallel Direction: WT + ISRIB vs WT, direction compared with DYT/WT
[2] = test system: DYT-TOR1A MEF EVs; test: Quantitative LC-MS/MS proteomics of EVs from drug-treated DYT-TOR1A MEF cultures (ritonavir, salubrinal); type: cell-based, mouse; design: key to RTV Corrective Direction / RTV Corrective Direction, Grwd1 / RTV Corrective Direction, Srrm2 / RTV Corrective Direction, Rbm17 / RTV Corrective Direction, Dcaf8 / RTV Corrective Direction, Edil3 / RTV Corrective Direction, Timp3 / RTV Corrective Direction, Heatr3 / RTV Corrective Direction, Brd4 / RTV Corrective Direction, P3h4 / RTV Corrective Direction, Pacsin3 / RTV Corrective Direction, Naa50 / RTV Corrective Direction, Lpar6 / RTV Corrective Direction, Ndrg1 / RTV Corrective Direction, Kntc1 / RTV Corrective Direction, Cdk11b / RTV Corrective Direction, Sumo1 / RTV Corrective Direction, Lsm4 / RTV Corrective Direction, Hmga2 / RTV Corrective Direction, Cstf1 / RTV Corrective Direction, Tes / RTV Corrective Direction, Sbno1 / RTV Corrective Direction, Unc119b / RTV Corrective Direction, Cfdp1 / RTV Corrective Direction, Sec61b: YES = protein abundance effect opposite to DYT/WT; conditions: EV protein abundance; for DYT + RTV/DYT Cohen's d: ritonavir (RTV)-treated DYT vs DYT

| Molecule | WT + ISRIB/WT Cohen's d [1] | ISRIB and DYT Parallel Direction [1] | DYT + RTV/DYT Cohen's d [2] | RTV Corrective Direction ([2]; DYT + RTV (ritonavir) vs DYT, direction compared with DYT/WT) |
| --- | --- | --- | --- | --- |
| Ilf3 (protein, UniProt Q9Z1X4 1-898, looked up) Interleukin enhancer-binding …: MRPMRIFVNDDRHVMAKHSSVYPTQEELEAVQNMVSHTERALKAVSDWIDEQEKGNSELSEAENMDTPPDDESKEGAGEQKAEHMTRTLRGVMRVGLVAKGLLLKGDLDLELVLLCKEKPTTALLDKVADNLAIQLTTVTEDKYEILQSVDDAAIVIKNTKEPPLSLTIHLTSPVVREEMEKVLAGETLSVNDPPDVLDRQKCLAALASLRHAKWFQARANGLKSCVIVIRVLRDLCTRVPTWGPLRGWPLELLCEKSIGTANRPMGAGEALRRVLECLASGIVMPDGSGIYDPCEKEATDAIGHLDRQQREDITQSAQHALRLAAFGQLHKVLGMDPLPSKMPKKPKNENPVDYTVQIPPSTTYAITPMKRPMEEDGEEKSPSKKKKKIQKKEEKADPPQAMNALMRLNQLKPGLQYKLISQTGPVHAPIFTMSVEVDGSNFEASGPSKKTAKLHVAVKVLQDMGLPTGAEGRDSSKGEDSAEESDGKPAIVAPPPVVEAVSNPSSVFPSDATTEQGPILTKHGKNPVMELNEKRRGLKYELISETGGSHDKRFVMEVEVDGQKFQGAGSNKKVAKAYAALAALEKLFPDTPLALEANKKKRTPVPVRGGPKFAAKPHNPGFGMGGPMHNEVPPPPNIRGRGRGGNIRGRGRGRGFGGANHGGGYMNAGAGYGSYGYSSNSATAGYSQFYSNGGHSGNAGGGGSGGGGGSSSYSSYYQGDSYNSPVPPKHAGKKPLHGGQQKASYSSGYQSHQGQQQPYNQSQYSSYGTPQGKQKGYGHGQGSYSSYSNSYNSPGGGGGSDYSYDSKFNYSGSGGRSGGNSYGSSGSSSYNTGSHGGYGTGSGGSSSYQGKQGGYSSQSNYSSPGSSQSYSGPASSYQSSQGGYSRNTEHSMNYQYR | −4.89 | YES | −1.23 | – |
| Apom (protein, UniProt Q9Z1R3 1-190, looked up) Apolipoprotein M: MFHQVWAALLSLYGLLFNSMNQCPEHSQLTALGMDDTETPEPHLGLWYFIAGAASTTEELATFDPVDNIVFNMAAGSAPRQLQLRATIRTKSGVCVPRKWTYRLTEGKGNMELRTEGRPDMKTDLFSSSCPGGIMLKETGQGYQRFLLYNRSPHPPEKCVEEFQSLTSCLDFKAFLVTPRNQEACPLSSK | 2.53 | YES | 0.40 | – |
| Slc25a5 (protein, UniProt P51881 1-298, looked up) ADP/ATP translocase 2: MTDAAVSFAKDFLAGGVAAAISKTAVAPIERVKLLLQVQHASKQITADKQYKGIIDCVVRIPKEQGVLSFWRGNLANVIRYFPTQALNFAFKDKYKQIFLGGVDKRTQFWRYFAGNLASGGAAGATSLCFVYPLDFARTRLAADVGKAGAEREFKGLGDCLVKIYKSDGIKGLYQGFNVSVQGIIIYRAAYFGIYDTAKGMLPDPKNTHIFISWMIAQSVTAVAGLTSYPFDTVRRRMMMQSGRKGTDIMYTGTLDCWRKIARDEGSKAFFKGAWSNVLRGMGGAFVLVLYDEIKKYT | −0.54 | YES | −0.78 | – |
| Exoc4 (protein, UniProt O35382 2-975, looked up) Exocyst complex component 4: AAEAAGGKYRSTVSKSKDPSGLLISVIRTLSTSDDVEDRENEKGRLEEAYEKCDRDLDELIVQHYTELTTAIRTYQSITERITNSRNKIKQVKENLLSCKMLLHCKRDELRKLWIEGIEHKHVLNLLDEIENIKQVPQKLEQCMASKHYLSATDMLVSAVESLEGPLLQVEGLSDLRLELHSKKMNLHLVLIEELHRHLYIKSTSRVVQRNKEKGKMSSHGKDPSPGPLIDVSNIPTPRKFLDASQYSAAGGSSVREMNLQDVKEDLECDPEENSTLFMGILIQGLARLKKIPETVKAIKERLEQELKQIVKRSTTQVADSAYQRGESLTVDNQPRLLLELLELLFDKFNAVATAHSVVLGYLQDSVGTQLTQQEEIKLYDMADVWVKIQDVLQMLLTEYLDMKNTRTASEPSAQLSYASTGREFAAFFAKKKPQRPKNSLFKFESSSHAISMSAYLREQRRELYSRSGELQGGPDDNLIEGGGTKFVCKPGARNITVIFHPLLRFIQEIEHALGLGPAKQCPLREFLTVYIKSIFLNQVLAEINKEIEGVTKTSDPLKILANADTMKVLGVQRPLLQSTIIVEKTVQDLMNLMHDLSAYSDQFLNMVCVKLQEYKDTCSTAYRGIVQSEEKLVISASWAKDDDISRLLKSLPNWTNMAQPKQLRPKREEEEDFIRAAFGKESEVLIGNLGDKLIPPQDILRDVSDLKALANMHESLEWLAGRTKSAFSNLSTSQMLSPAQESHVNMDLPPVSEQIMQTLSELAKTFQDMADRCLLVLHLEVRVHCFHYLIPLAKEGNYAIVANVESMDYDPLVVKLNKDISAMEEAMSASLQQHKFQYIFEGLGHLISCILINGAQYFRRISESGIKKMCRNIFVLQQNLTNITMSREADLDFARQYYEMLYNTADELLNLVVDQGVKYTELEYIHALTLLHRSQTGVGDQTTQNTRLQRLKEIICEQAAIKQATKDKKITTV | −1.51 | YES | 7.70 | YES |
| Wbp2 (protein, UniProt P97765 1-261, looked up) WW domain-binding protein 2: MALNKNHSEGGGVIVNNTESILMSYDHVELTFNDMKNVPEAFKGTKKGTVYLTPYRVIFLSKGKDAMQSFMMPFYLMKDCEIKQPVFGANFIKGIVKAEAGGGWEGSASYKLTFTAGGAIEFGQRMLQVASQASRGEVPNGAYGYPYMPSGAYVFPPPVANGMYPCPPGYPYPPPPPEFYPGPPMMDGAMGYVQPPPPPYPGPMEPPVSGPSAPATPAAEAKAAEAAASAYYNPGNPHNVYMPTSQPPPPPYYPPEDKKTQ | −1.50 | YES | −0.89 | – |
| Lnpep (protein, UniProt Q8C129 1-1025, looked up) Leucyl-cystinyl aminopeptidase: MESFTNDRLQLPRNMIENSMFEEEPDVVDLAKEPCLHPLEPDEVEYEPRGSRLLVRGLGEHEMDEDEEDYESSAKLLGMSFMNRSSGLRNSAAGYRQSPDGTCSLPSARTLVICVFVIVVAVSVIMVIYLLPRCTFTKEGCHKTNQSAELIQPVATNGKVFPWAQIRLPTAIIPLCYELSLHPNLTSMTFRGSVTISLQALQDTRDIILHSTGHNISRVTFMSAVSSQEKQVEILEYPYHEQIAVVAPEPLLTGHNYTLKIEYSANISNSYYGFYGITYTDKSNEKKYFAATQFEPLAARSAFPCFDEPAFKATFIIKITRNEHHTALSNMPKKSSVPAEEGLIQDEFSESVKMSTYLVAFIVGEMRNLSQDVNGTLVSVYAVPEKIGQVHHALDTTIKLLEFYQTYFEIQYPLKKLDLVAIPDFEAGAMENWGLLTFREETLLYDNATSSVADRKLVTKIIAHELAHQWFGNLVTMQWWNDLWLNEGFATFMEYFSVEKIFKELNSYEDFLDARFKTMRKDSLNSSHPISSSVQSSEQIEEMFDSLSYFKGASLLLMLKSYLSEDVFRHAVILYLHNHSYAAIQSDDLWDSFNEVTDKTLDVKKMMKTWTLQKGFPLVTVQRKGTELLLQQERFFLRMQPESQPSDTSHLWHIPISYVTDGRNYSEYRSVSLLDKKSDVINLTEQVQWVKVNSNMTGYYIVHYAHDDWTALINQLKRNPYVLSDKDRANLINNIFELAGLGKVPLRMAFDLIDYLKNETHTAPITEALFQTNLIYNLLEKLGHMDLSSRLVARVHKLLQNQIQQQTWTDEGTPSMRELRSALLEFACAHSLENCTTMATNLFDSWMASNGTQSLPTDVMVTVFKVGARTEKGWLFLFSMYSSMGSEAEKNKILEALASSEDVHKLYWLMKSSLDGDIIRTQKLSLIIRTVGRHFPGHLLAWDFVKENWNKLVHKFHLGSYTIQSIVAGSTHLFSTKTHLSEVQAFFENQSEATLKLRCVQEALEVIQLNIQWMVRNLKTLSQWL | −1.24 | YES | −0.39 | – |
| Serpinf1 (protein, UniProt P97298 20-417, looked up) Pigment epithelium-derived …: QNVPSSSEGSPVPDSTGEPVEEEDPFFKVPVNKLAAAVSNFGYDLYRLRSSASPTGNVLLSPLSVATALSALSLGAEHRTESVIHRALYYDLITNPDIHSTYKELLASVTAPEKNLKSASRIVFERKLRVKSSFVAPLEKSYGTRPRILTGNPRVDLQEINNWVQAQMKGKIARSTREMPSALSILLLGVAYFKGQWVTKFDSRKTTLQDFHLDEDRTVRVPMMSDPKAILRYGLDSDLNCKIAQLPLTGSMSIIFFLPLTVTQNLTMIEESLTSEFIHDIDRELKTIQAVLTVPKLKLSFEGELTKSLQDMKLQSLFESPDFSKITGKPVKLTQVEHRAAFEWNEEGAGSSPSPGLQPVRLTFPLDYHLNQPFLFVLRDTDTGALLFIGRILDPSST | −1.83 | – | 1.47 | – |
| Idua (protein, UniProt P35475 28-653, looked up) Alpha-L-iduronidase: APHLVHVDAARALWPLRRFWRSTGFCPPLPHSQADQYVLSWDQQLNLAYVGAVPHRGIKQVRTHWLLELVTTRGSTGRGLSYNFTHLDGYLDLLRENQLLPGFELMGSASGHFTDFEDKQQVFEWKDLVSSLARRYIGRYGLAHVSKWNFETWNEPDHHDFDNVSMTMQGFLNYYDACSEGLRAASPALRLGGPGDSFHTPPRSPLSWGLLRHCHDGTNFFTGEAGVRLDYISLHRKGARSSISILEQEKVVAQQIRQLFPKFADTPIYNDEADPLVGWSLPQPWRADVTYAAMVVKVIAQHQNLLLANTTSAFPYALLSNDNAFLSYHPHPFAQRTLTARFQVNNTRPPHVQLLRKPVLTAMGLLALLDEEQLWAEVSQAGTVLDSNHTVGVLASAHRPQGPADAWRAAVLIYASDDTRAHPNRSVAVTLRLRGVPPGPGLVYVTRYLDNGLCSPDGEWRRLGRPVFPTAEQFRRMRAAEDPVAAAPRPLPAGGRLTLRPALRLPSLLLVHVCARPEKPPGQVTRLRALPLTQGQLVLVWSDEHVGSKCLWTYEIQFSQDGKAYTPVSRKPSTFNLFVFSPDTGAVSGSYRVRALDYWARPGPFSDPVPYLEVPVPRGPPSPGNP | 0.52 | – | −0.08 | – |
